Measurements as given in patent US20240309050A1.

Legend:
[1] = molecular target: gHgL antigen protein of EB virus (EB virus (M81 strain)); assay: BLI (Octet), AMMO1 on protein A sensor, antigen (row label gHgL) in solution 3.125-200 nM, 1:1 fit
[2] = molecular target: gHgL-I53-50A1 subunit (EB virus (M81 strain) for the gH and gL parts); assay: BLI (Octet), AMMO1 on protein A sensor, antigen (row label gHgL-I53-50A1) in solution 3.125-200 nM, 1:1 fit
[3] = molecular target: gHgL-I53-50 NP self-assembled nanoparticle (EB virus (M81 strain) for the gH and gL parts); assay: BLI (Octet), AMMO1 on protein A sensor, antigen (row label gHgL-I53-50 NP) in solution 3.125-200 nM, 1:1 fit

Substance neutralizing antibody AMMO1 has a Kd [1] of 432 pM, a Kd [2] of 242 pM and a Kd [3] of 33.9 pM.
